Target: LvPrx4 (endogenous, shrimp hemocytes) (Penaeus vannamei (endogenous in hemocytes))
Assay: Western blot after SDS-PAGE

stoichiometry N: 2
Substance: LvPrx4 (endogenous, shrimp hemocytes) (natural protein)
